Consider one molecule from patent US20180215829A1 (CRESCENDO BIOLOGICS, published 2018).

The target of test [1] is T1, human IL-17RA on HT1080 cells (human, UniProt Q96F46 33-866).
T1 sequence: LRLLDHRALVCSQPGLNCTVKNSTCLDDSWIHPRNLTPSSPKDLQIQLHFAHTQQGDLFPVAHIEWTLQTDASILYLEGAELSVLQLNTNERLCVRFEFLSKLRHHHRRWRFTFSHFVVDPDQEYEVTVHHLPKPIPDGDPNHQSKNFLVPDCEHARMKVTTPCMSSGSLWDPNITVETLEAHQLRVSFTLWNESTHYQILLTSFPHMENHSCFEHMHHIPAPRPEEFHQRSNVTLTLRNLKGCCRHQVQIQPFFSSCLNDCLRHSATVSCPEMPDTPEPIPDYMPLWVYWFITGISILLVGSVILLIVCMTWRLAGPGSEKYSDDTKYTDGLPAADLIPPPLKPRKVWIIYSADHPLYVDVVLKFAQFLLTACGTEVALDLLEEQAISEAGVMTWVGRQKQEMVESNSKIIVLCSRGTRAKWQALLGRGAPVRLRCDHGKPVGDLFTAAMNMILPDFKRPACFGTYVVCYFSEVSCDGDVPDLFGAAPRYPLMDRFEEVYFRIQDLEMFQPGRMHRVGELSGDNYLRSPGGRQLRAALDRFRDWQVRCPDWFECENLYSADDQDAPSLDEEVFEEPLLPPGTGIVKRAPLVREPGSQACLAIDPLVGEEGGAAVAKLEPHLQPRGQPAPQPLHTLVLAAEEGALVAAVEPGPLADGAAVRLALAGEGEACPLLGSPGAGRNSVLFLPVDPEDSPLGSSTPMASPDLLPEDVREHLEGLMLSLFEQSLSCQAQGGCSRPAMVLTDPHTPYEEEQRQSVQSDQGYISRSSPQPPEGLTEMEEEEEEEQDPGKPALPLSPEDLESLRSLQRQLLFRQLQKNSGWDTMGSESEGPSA
The test can be described thus: cell-based or functional assay.

In test [2] the target is T1, human IL-17RA on HT1080 cells. The test can be described thus: cell-based or functional assay. The source holds these as a separate data set.
Test [3] shares this target. The experiment in a line: cell-based or functional assay. This is another data set of the same source.
The target of test [4] is T2, recombinant human IL-17RA Fc fusion protein (R&D Systems 177-IR-100) (human, UniProt Q96F46 33-320).
T2 construct: Bought protein; not shown: Fc domain of human IgG1
T2 sequence: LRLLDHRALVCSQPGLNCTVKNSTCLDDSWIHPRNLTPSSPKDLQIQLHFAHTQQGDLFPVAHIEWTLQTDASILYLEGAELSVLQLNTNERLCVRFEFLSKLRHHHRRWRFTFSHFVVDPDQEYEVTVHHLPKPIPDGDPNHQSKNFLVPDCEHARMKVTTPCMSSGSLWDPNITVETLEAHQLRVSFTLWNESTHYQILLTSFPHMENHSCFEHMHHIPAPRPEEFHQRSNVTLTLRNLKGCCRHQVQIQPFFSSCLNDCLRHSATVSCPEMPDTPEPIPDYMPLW
The test can be described thus: IL-17RA ligand inhibition ELISA (FIG. 10A): VH competes with IL-17A for coated IL-17RA-Fc. The protocol:
(§1) VH, both purified and crude periplasmic extracts, were also tested for their ability to inhibit the interaction of IL-17A with recombinant IL-17RA-Fc. […] Following washing of excess coating antigen, as described above, the wells of the plate were incubated with 3% Marvel/PBS to block non-specific protein interactions. VH preparations, crude periplasmic extracts or purified VH, or suitable controls, were prepared with 1 nM recombinant IL-17A (Peprotech, cat# AF-200-17) in 3% skimmed milk powder/PBS solution in polypropylene plates or tubes. The mixture was then transferred to the assay plate and incubated for 1 hour at room temperature. Excess protein was removed by washing and bound IL-17A was detected by incubation with biotinylated anti-IL-17A Mab (R & D Systems, cat BAF317) followed by the addition of neutravidin-HRP (Pierce, cat#31030) and TMB substrate (Sigma, cat# T0440). The TMB reaction was stopped by addition of 0.5M H₂SO₄ and absorbances were measured at 450 nm in a plate reader.
Background: ELISA stands for enzyme-linked immunosorbent assay.

Test [5] has as its target T2, recombinant human IL-17RA Fc fusion …. The test can be described thus: BIAcore T200 single-cycle kinetics, IL-17RA-Fc captured on protein G chip, VH as analyte. How it is done: (§2) Binding kinetics of anti-IL-17RA VH antibodies were measured on a BIAcore® T200 instrument. For IL-17RA, first a protein G chip was prepared by diluting protein G to 20 ug/ml in acetate buffer, pH 4 (BIAcore®, cat# BR-100-49) and then coupled 1200 RU to a CM5 Series S chip using amine coupling chemistry. This surface was then used to capture IL-17RA Fc fusion protein from solution: IL-17RA at 10 ug/ml in HBS injected for 10 seconds at 30 ul/min flow rate would capture approximately 100-150 RU of IL-17RA onto the protein G surface.
(§3) Binding kinetics of anti-IL-17RA VH antibodies were determined by single-cycle kinetics. VH antibodies were prepared in dilution series (typically 1:3 dilution series starting with 100 nM VH at the highest concentration), and then injected over the antigen coated surfaces and also a blank surface, starting with the lowest concentration of VH and then working progressively up to the highest concentration. VH binding kinetics were then determined from the (blank subtracted) sensorgram traces using 1:1 binding models and BIAevaluation software.
(SPR reads the build-up and loss of mass on a sensor chip optically.)

The target is the same in test [6]. Described as above. How it is done:
as §2, §3
This is another data set of the same source.

Test [7] has the same target. The test can be described thus: receptor/ligand biochemical inhibition ELISA: VH competes with 1 nM IL-17A for coated IL-17RA-Fc. The protocol: as §1
Test [8] has the same target. The description is as above. The protocol:
as §1
The source holds these as a separate data set.

Like-named read-outs stand apart in the source and are kept apart here.

B1: VH clone 2.1 (VHH)
VHH: QVQLVQSGAEVKKPGASVKVSCKASGYPFTSYDINWVRQATGQSLEWMGWMNPNSGDTVYAQKFQGRVTMTRNTSISTAYMELSSLRSEDTAVYFCARGRRDDWKNNYWGQGTLVTVSS
notes: Human VH single domain antibody, no light chain; Parent clone of family 2; also called VH 2.1
A word on the IC50: it is the concentration at which inhibition is half-maximal. One may read the Kd as the equilibrium constant for the complex coming apart. One may read the koff as a measure of how fast the partners let go of each other. A word on the kon: it is the rate constant with which the complex forms. As to B1, the “IC50 (nM), cell-based assay” value in test [1] was 363 nM. For the same molecule, the “Cell assay IC50” value in test [2] and in test [3] was 280 nM throughout. The results for the IC50 in test [4], in test [7] and in test [8] were 4 nM, 3.7 nM and 3.7 nM, respectively. The dissociation constant (Kd) in test [5] and in test [6] was 7 nM throughout. The koff in test [6] was determined as 0.00263 s⁻¹. Besides, the kon in test [6] was 368000 M⁻¹ s⁻¹.
